The record followed here is article PMC4229036.

The target of this assay is Donor-labeled human factor Xa (fluorescein-EGR-chloromethylketone at the active site) (human). Briefly: fluorescence polarisation. (In general: Fluorescence polarisation rises when a labelled molecule tumbles more slowly, as on binding a larger partner.)

Regarding “Recombinant human factor Va (FVa2) with a N2181Q mutation (natural protein)”, the fluorescence anisotropy of active-site fluorescein (200 µM C6PS) was 0.21, the fluorescence anisotropy of active-site fluorescein (400 µM C6PS) was determined as 0.22, the fluorescence anisotropy of active-site fluorescein (700 µM C6PS) came out at 0.22 and the fluorescence anisotropy of active-site fluorescein (on membranes) worked out at 0.22.
